Laboratory results reported in publication PMC4081097.

Target: T1, AbaSI-C3S (Acinetobacter baumannii SDF, UniProt B0VN39 1-321, C2S;C309S;C321S)
T1 sequence: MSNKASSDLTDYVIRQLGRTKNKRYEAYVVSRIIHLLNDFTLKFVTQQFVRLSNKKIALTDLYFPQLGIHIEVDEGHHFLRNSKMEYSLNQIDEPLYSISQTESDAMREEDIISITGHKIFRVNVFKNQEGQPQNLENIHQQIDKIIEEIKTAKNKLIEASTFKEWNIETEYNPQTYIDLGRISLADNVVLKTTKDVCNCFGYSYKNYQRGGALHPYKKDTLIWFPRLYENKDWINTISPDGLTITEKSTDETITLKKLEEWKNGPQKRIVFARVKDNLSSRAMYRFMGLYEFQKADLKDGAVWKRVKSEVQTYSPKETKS
Test: X-ray crystallography

B1: 14+4 product DNA (dsDNA)
DNA 1: TGCTCGATACAATAGGCC
DNA 2: TATTGTATCGAGCA
modifications: 5hmC at top position 5
B1: binds.
